The results in this text go back to patent publication US20250122271A1, “ANTI-DKK1 ANTIBODY, PHARMACEUTICAL COMPOSITION THEREOF, AND USE THEREOF” (SHANGHAI JUNSHI BIOSCIENCES CO., LTD., priority 2022, published 2025).

Like-named read-outs stand apart in the source and are kept apart here.

What is called EC50 is the midpoint of the concentration-response curve. Higher therefore signals a less potent agent. The IC50 is the concentration needed to halve the response being measured.

Assay [1] relates to A549 cells. Kind of assay: A549 subcutaneous transplantation tumor model in CB17/SCID female mice. To be noted: day 35; paclitaxel 20 mg/kg intraperitoneal twice per week for 4 weeks. The class given is in vivo. Here is the method:
The experimental animals were CB17/SCID female mice, and A549 cells (5× 10^6) were subcutaneously inoculated into the mice to establish a subcutaneous transplantation tumor model. […] The groups each had 6 animals, and the animals in all the groups were subjected to intraperitoneal injection. […] The efficacy was evaluated based on tumor growth inhibition (TGI) (FIG. 9).

Assay [2] deals with T1, human DKK1 antigen (Sino Biological, 10170-H08H) (human, UniProt O94907 32-266).
T1 chain: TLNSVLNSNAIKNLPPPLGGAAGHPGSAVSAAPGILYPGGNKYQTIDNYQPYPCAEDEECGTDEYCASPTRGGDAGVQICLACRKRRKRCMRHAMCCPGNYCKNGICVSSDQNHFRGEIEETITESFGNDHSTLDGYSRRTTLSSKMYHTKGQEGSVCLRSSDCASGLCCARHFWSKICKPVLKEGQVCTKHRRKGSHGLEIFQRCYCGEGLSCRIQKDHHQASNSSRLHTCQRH
Kind of assay: ELISA binding; given as IC50. For orientation: An ELISA detects its analyte on a solid surface through an enzyme-linked reagent.

Assay [3] deals with T1, human DKK1 antigen (Sino Biological, …). Kind of assay: ELISA blocking of DKK1-LRP6.
Assay [4] has as its target T2, human DKK1 antigen (Sino Biological, 10170-H08H) (human, UniProt O94907 32-266).
T2 construct: also called huDKK1; hDKK1
T2 sequence (looked up): T1 chain
Briefly: ELISA, coated human DKK1. Here is the method:
(§1) Detection of the binding activity of the chimeric antibodies for human DKK1 by ELISA: After the plate was coated with 2.0 μg/mL human DKK1 antigen (Sino Biological, 10170-H08H) for 90 min and then blocked with 2% BSA for 90 min, the gradiently diluted anti-DKK1 chimeric antibodies and positive control antibody DKN-01 (starting at 1 μg/mL, diluted in a 2.5-fold gradient to 1.64 ng/ml, with a total of 8 concentrations) were added, and the mixture was incubated for 60 min. After the plate was washed, the 5000-fold diluted HRP-conjugated goat anti-human IgG (Fc specific) (Sigma, A0170) secondary antibody was added for incubation, and 0.1 mg/mL TMB (Sigma, T2885) was added for color development. Finally, the reaction was stopped with a 2 M hydrochloric acid solution. The plate was read at 450 nm/620 nm using a Thermo Scientific microplate reader, and the EC50 values of the chimeric antibodies (FIG. 3) were obtained by fitting using a four-parameter logistic regression (4PL) model.

Assay [5] addresses T1, human DKK1 antigen (Sino Biological, …). Briefly: ELISA binding.
Assay [6] shares this target. Kind of assay: ELISA binding.
For assay [7] the target is unchanged. Briefly: ELISA blocking of DKK1-LRP6.
For assay [8], the target named is T3, human DKK1 (Homo sapiens, UniProt O94907).
T3 construct: purchased Sino Biological 10170-H08H
T3 sequence (O94907 32-266): T1 chain
Kind of assay: Luciferase reporter gene assay in 293 TOP cells with Wnt3a and human DKK1 (recovery of Wnt signaling). The class given is cell-based. Conditions: screening at protein and cellular level. The method, then: The cellular biological activity of the DKK1 antibodies was tested using target cells 293 TOP overexpressing LRP5/6 and comprising the luciferase reporter system and recombinant Wnt3a (R&D systems, cat #5036-WN), as well as human DKK1 (Sino Biological, cat #10170-H08H) protein. The target cells 293 TOP were placed into a 96-well flat-bottomed white plate (corning, cat #3917) at 50,000 cells per well for incubation overnight. The supernatant was then discarded, and the gradiently diluted antibodies to be tested were each added for pre-incubation at 37° C. for 0.5 h. After the pre-incubation was completed, the diluted Wnt3a (R&D systems, cat #5036-WN) and human DKK1 protein, at working concentrations of 0.05 μg/mL and 0.1 μg/mL, respectively, were added into the mixture containing the cells and antibody for co-incubation at 37° C. for 6-8 h. Finally, the luciferase substrate One-Lite (Vazyme, cat #DD1203-03-AB) was added and the chemiluminescence values of the hybridoma antibodies were measured.
The cellular biological activity of the hDKK1 chimeric antibodies was tested using target cells 293 TOP overexpressing LRP5/6 and comprising the luciferase reporter system and recombinant Wnt3a (R&D systems, cat #5036-WN), as well as human DKK1 (Sino Biological, cat #10170-H08H) protein.
The target cells 293 TOP were placed into a 96-well flat-bottomed white plate (corning, cat #3917) at 50,000 cells per well for incubation overnight. […] Finally, the luciferase substrate One-Lite (Vazyme, cat #DD1203-03-AB) was added and the chemiluminescence values of the chimeric antibodies were measured (FIGS. 5A-5C).
The cellular biological activity of the DKK1 antibodies was tested using target cells 293 TOP overexpressing LRP5/6 and comprising the luciferase reporter system and recombinant Wnt3a (R&D systems, cat #5036-WN), as well as human DKK1 (Sino Biological, cat #10170-H08H) protein. […] Finally, the luciferase substrate One-Lite (Vazyme, cat #DD1203-03-AB) was added and the chemiluminescence values of the humanized antibodies were measured. […]

Assay [9] deals with T3, human DKK1. Kind of assay: Binding of antibodies to human DKK1 by ELISA. Conditions: chimeric antibodies, compared among each other. The method, then:
as §1
Detection of the binding of the humanized antibodies to DKK1 by ELISA: The plate was coated with 2.0 μg/mL human DKK1 antigen (Sino Biological, 10170-H08H) for 90 min and then blocked with 2% BSA for 90 min. After the plate was washed, the gradiently diluted anti-DKK1 humanized antibodies (starting at 1 μg/mL, diluted in a 10-fold gradient to 1 ng/ml, with a total of 4 concentrations) were each added, and the mixture was incubated for 60 min. After the plate was further washed, the 5000-fold diluted HRP-conjugated goat anti-human IgG (Fc specific) (Sigma, A0170) secondary antibody was added for incubation for 30 min, and 0.1 mg/mL TMB (Sigma, T2885) was added at 100 μL per well for color development for 10 min. Finally, a 2 M hydrochloric acid solution was added at 50 μL per well to stop the reaction. The plate was read at 450 nm/620 nm using a Thermo Scientific microplate reader. The EC50 values of the humanized antibodies were obtained by fitting using a four-parameter logistic regression (4PL) model.

For `CC(=O)O[C@H]1C(=O)[C@@]2(C)[C@H]([C@H](OC(=O)c3ccccc3)[C@]3(O)C[C@H](OC(=O)[C@H](O)[C@@H](NC(=O)c4ccccc4)c4ccccc4)C(C)=C1C3(C)C)[C@]1(OC(C)=O)CO[C@@H]1C[C@@H]2O` [paclitaxel, reference compound], in assay [1], the “tumor growth inhibition (TGI)” value was found to be 60.48%.

B1: chimeric antibody chi-8 (antibody, human IgG4 S228P, kappa, V domains shown)
VH: EVQLQQSGPELVKPGASVKIFCKTSGYTFTENTMHWVKQTHGKSLEWIGGINPHKGGTSYNQKFKGKATLTVDKSSSTACMELRSLTSEDSTVYYCARDWLGAMDYWGQGTSVTVSP
VL: ETTVTQSPASLSMAIGEKVTIRCITSTDIDDDMNWYQQKPGEPPKLLISEGNTLRPGVPSRFSSSGYGTDFVFTIENMLSEDVADYYCLQSDNLPYTFGGGTKLEIKR
notes: hIgG4 heavy constant region and human kappa constant region; also called No. 2 chimeric antibody molecule
In turn, B1 showed an EC50 in assay [2] of 0.0434 µg/mL. The molecule further showed an IC50 in [3] of 0.309 µg/mL. Moreover, the binding result in assay [4] is listed as “binds”.

B2: chi-21 (antibody, V domains shown)
VH: QVQLQQPGAELVKPGASVKMSCKASGYTFTSYNMLWVKQTPGQGLEWIGVIFPGNGDTSYNPKFKGKAALTADKSSSTAYMQLSSLTSEDSAVYYCARDGYPSMDYWGQGTSVTVSS
VL: QIVLTQSPVIMSASPGEKVTMTCSASSSVSYMYWYQQKPGSSPRLLIYDTSNLASGVPVRFSGSGSGTSYSLTISRMEAEDAATYYCQQWSSYPPALTFGAGTKLELK
In turn, B2 gave an EC50 in assay [5] of 0.816 µg/mL. The molecule also returned an IC50 in assay [3] of 0.92 µg/mL.

B3: chimeric antibody chi-15 (antibody, human IgG4 S228P, kappa, V domains shown)
VH: B2 VH
VL: ETIVTQSPASLSVATGEKVTIRCITSTDIDDDMNWYQQKPGEPPKLLISEGNSLRPGVPSRFSSSGYGTDFVFTIENTLSEDVADYYCLQFNNMPLTFGAGTKLELKR
notes: hIgG4 heavy constant region and human kappa constant region; also called No. 3 chimeric antibody molecule
For the molecule B3, the figures for the EC50 in assay [5] and in assay [6] were 0.0238 µg/mL and 0.0244 µg/mL, respectively. Moreover, the IC50 in assay [3] is 0.0992 µg/mL; in assay [7] it was 0.258 µg/mL. Moreover, the binding result in assay [4] is reported as “binds”.

B4: chi-1: chimeric antibody 1VH+1VL (SEQ ID NO: 37/38) (antibody, V domains shown)
VH: MGWSWIFLFLLSGTAGVLSEVQLQQSGPELVKPGASVRISCKTSGYTFTEYTMHWVKQSHGKSLEWIGVIDPSNGDTSYNQKFKGRATLTVDKSSSTAYMDLRSLTSEDSALYYCSSTTGPWFACWGQGTLVTVSA
VL: MSSAQFLGLLLLCFQGTRCDIQMTQTTSSLSASLGDRVTINCRASQDISNYLNWYQQKPDGTVKLLIYYKSRLHSGVPTRFSGSGSGTDFSLTISNLVQEDIATYFCQQVHTLPPTFGGGTKLEIK
Consider B4, for which the “in vitro activity in the screening of the chimeric antibodies of Example 4” value (“in vitro activity in the screening” for short) in [8] is reported as “best in vitro activity”. The “relative binding activity for human DKK1 (ELISA)” value (shortened to “relative binding activity”) in assay [9] is “superior activity”.

B5: chimeric antibody chi-1 (antibody, human IgG4 S228P, kappa, V domains shown)
VH: EVQLQQSGPELVKPGASVRISCKTSGYTFTEYTMHWVKQSHGKSLEWIGVIDPSNGDTSYNQKFKGRATLTVDKSSSTAYMDLRSLTSEDSALYYCSSTTGPWFACWGQGTLVTVSA
VL: DIQMTQTTSSLSASLGDRVTINCRASQDISNYLNWYQQKPDGTVKLLIYYKSRLHSGVPTRFSGSGSGTDFSLTISNLVQEDIATYFCQQVHTLPPTFGGGTKLEIKR
notes: hIgG4 heavy constant region and human kappa constant region; also called No. 1 chimeric antibody molecule
For B5, in [2], a half-maximal effect (EC50) was put at 0.0238 µg/mL. The same molecule gave an IC50 in [3] of 0.355 µg/mL. Also, the binding result in [4] is reported as “binds”.

B6: chi-15: chimeric antibody 3VH+3VL (SEQ ID NO: 41/42) (antibody, V domains shown)
VH: MGWNCFILFLVATATGVHSQVQLQQPGAELVKPGASVKMSCKASGYTFTSYNMLWVKQTPGQGLEWIGVIFPGNGDTSYNPKFKGKAALTADKSSSTAYMQLSSLTSEDSAVYYCARDGYPSMDYWGQGTSVTVSS
VL: MLSLAPLLSLLLLCVSDSRAETIVTQSPASLSVATGEKVTIRCITSTDIDDDMNWYQQKPGEPPKLLISEGNSLRPGVPSRFSSSGYGTDFVFTIENTLSEDVADYYCLQFNNMPLTFGAGTKLELK
Regarding B6, the “in vitro activity in the screening” value in [8] is “best in vitro activity”. Further, the “relative binding activity” value in assay [9] is recorded as “superior activity”.

B7: chi-8: chimeric antibody 2VH+2VL (SEQ ID NO: 39/40) (antibody, V domains shown)
VH: MGWSWIFLFLLSGTAGVLSEVQLQQSGPELVKPGASVKIFCKTSGYTFTENTMHWVKQTHGKSLEWIGGINPHKGGTSYNQKFKGKATLTVDKSSSTACMELRSLTSEDSTVYYCARDWLGAMDYWGQGTSVTVSP
VL: MFSLALLLSLLLLCVSDSRAETTVTQSPASLSMAIGEKVTIRCITSTDIDDDMNWYQQKPGEPPKLLISEGNTLRPGVPSRFSSSGYGTDFVFTIENMLSEDVADYYCLQSDNLPYTFGGGTKLEIK
As to B7, in [8], the “in vitro activity in the screening” value is recorded as “best in vitro activity”. Besides, in assay [9], the “relative binding activity” value is given as “superior activity”.
